# Measurements published in patent US20220265769A1, “COMPOSITIONS AND METHODS OF TREATMENT FOR BREAST CANCER INVOLVING A NOVEL CAPER?-MLL1 COMPLEX” (Geisinger Health, priority 2019, published 2022).
# Columns and labels:
# [1] = tested on: T47D cells; assay: Crystal violet assay / cell counts of T47D cells treated with cell penetrating peptides; format: cell-based, human; settings: 5 μM peptide in media, 72 hrs
# Procedure: FIG. 9. […] A) Amino acid sequences of CPP-RRM1-myc, and RRM3-(441-500)-myc (SEQ ID NO: 33) and CPP-RRM3 (441-500)-myc (SEQ ID NO: 32) peptides. The sequence of Penetratin is in grey, myc tag in light grey and RRM3 in black. B) Coomassie staining showing GST-tagged, purified proteins. C, D) Representative light microscopic images of crystal violet stained cells taken after 3 days of treatment with 5 uM CPP-RRM3 (441-500)-myc. E, F) Crystal violet assay of cell numbers during treatment with 5 uM CPP-RRM3 (441-500) myc. G) Quantification of total number of cells before and after 3 days of treatment with CPP RRM3. H, I, J) Representative light microscopic images of crystal violet stained T47D cells taken after 3 days of treatment with peptides listed at top. K, L, M) Crystal violet assay of number T47D cells over 3 days of treatment with peptides listed. N) Quantification of total number of T47D cells before and after 3 days of treatment.
# (§1) Crystal violet assay/optical density method of cell quantitation: 5×10^5 cells were plated per well in 6-well tissue culture plates. At times indicated cells were washed with PBS and fixed for 10 minutes in a 10% formalin solution. Cells were then rinsed with distilled water and subsequently stained with 100 μl 0.1% crystal violet solution for 30 min. Stained cells were rinsed with water to remove the excess traces of the staining solution. Cell-associated crystal violet dye was extracted with 500 μl of 10% acetic acid. Aliquots were collected and optical density was measured at 590 nm wavelength. Each point on the curve shown represents 3 independent wells.
# (§2) Cell counts for CPP treatments: Cells were plated in 6-well dishes and incubated with 5 μM concentration of peptides. At days noted, cells were trypsinized and counted using a hemocytometer.
# Whether recombinant RRM3 conjugated with the Penetratin cell penetrating peptide (Dupont E, et al., Methods Mol Biol. 1324:29-37 (2015)) (FIGS. 9A, B) affects growth of T47D and PME cells was tested. Equal numbers of PME and T47D cells were seeded and incubated with 5 μM peptide in media for 72 hrs. […]
# [2] = tested on: PME cells; assay: Crystal violet assay / cell counts of primary mammary epithelial cells (PMEs) treated with cell penetrating peptides; format: cell-based, human; settings: PME cells, 5 μM peptide in media, 72 hrs
# Procedure: as §1, §2
# Whether recombinant RRM3 conjugated with the Penetratin cell penetrating peptide (Dupont E, et al., Methods Mol Biol. 1324:29-37 (2015)) (FIGS. 9A, B) affects growth of T47D and PME cells was tested. Equal numbers of PME and T47D cells were seeded and incubated with 5 μM peptide in media for 72 hrs. […] Compared to CPP-coupled RRM3, CPP-RRM1 and RRM3 had no effect (FIGS. 9H-N). […]
molecule,measurement,setting,value
"RRM3: recombinant RRM3 (441-500)-myc peptide without Penetratin (SEQ ID NO: 33) (protein, RRM3-derived synthetic sequence) GWDTEIKDDVIEECNKHGGVIHIYVDKNSAQGNVYVKCPSIAAAIAAVNALHGRWFAGKMTAAYVPEQKLISEEDL",number of breast cancer cells,[1],no effect
"CPP-RRM3: recombinant RRM3 (441-500) conjugated with the Penetratin cell penetrating peptide, myc tag (SEQ ID NO: 32) (protein, RRM3-derived synthetic sequence) RQIKIWFQNRRMKWKKGWDTEIKDDVIEECNKHGGVIHIYVDKNSAQGNVYVKCPSIAAAIAAVNALHGRWFAGKMTAAYVPEQKLISEEDL",number of PMEs,[2],no effect
same,number of breast cancer cells,[1],dramatically decreased
same,number of breast cancer cells,[1]; listed as Cell-penetrating CAPERα RRM3,disrupts breast cancer cell growth
